Assay results: PMC3324464, “The GPI Anchor Signal Sequence Dictates the Folding and Functionality of the Als5 Adhesin from Candida albicans” (PLoS ONE, 2012)
“Also recorded” adds a separate entry of the source.

Experiments:
[1] = tested on: collagen type IV treated with N-Glycosidase F; test: Adhesion to N-glycosidase F treated collagen type IV; type: binding, human; conditions: 0.5 U N-glycosidase F, 3 hours; data not shown
Procedure: Figure 3 Adhesion of Als5 to collagen type IV involves recognition of carbohydrate residues on collagen type IV but is not solely determined by it. (A) Adhesion of GST-Als5, GST-Als5-SS to collagen type IV. Different amounts of collagen type IV, as shown in the figure, were immobilized in 96-well flat bottomed ELISA plates and incubated with the proteins (0.09 mg/ml) of interest at 37 °C for 1 hour. The adhesion assay was carried out as described in Experimental Procedures. Adhesion of the proteins to collagen type IV was correlated to the absorbance at 650 nm observed by the oxidation of TMB, the substrate of HRP. […] Buffer controls (OD 650nm of 0.126 ± 0.003), corresponding to no immobilized collagen, have been subtracted in all cases. […] The data presented is mean of 3 independent experiments done in duplicates. […] (B) Treatment of collagen type IV with N-Glycosidase F results in decrease in adherence of GST-Als5. […] Adherence to collagen type IV was detected as already described. […]
Supplementary file pone.0035305.s005.tif: Figure S5 Treatment of collagen type IV with N-Glycosidase F results in decrease in adherence of GST-Als5. […] GST-Als5 was incubated before the adherence was detected by using primary anti-GST antibody and anti-rabbit HRP-conjugated secondary antibody and is represented in this figure by the Absorbance at 650nm observed upon oxidation of the specific substrate of HRP. […]

human collagen type IV = test: Adhesion assay to immobilised collagen type IV; type: binding; conditions: 0.09 mg/ml protein, 37°C 1 hour, anti-GST/HRP, TMB OD650nm; mean of 3 independent experiments in duplicates
Procedure: Freshly purified GST-Als5 and GST-Als5-SS were checked for their ability to bind to human collagen type IV, following a slightly modified method to that reported. Briefly, a 96-well flat bottom plate was coated with different amounts of collagen type IV and incubated overnight at 4°C. The plate was then washed thrice with PBS and twice with elution buffer. […] The wells were blocked for 1 hour with 5% skimmed milk in PBS and then washed 5 times with wash buffer (1% skimmed milk, 0.025% Tween-20 in PBS). Thereafter, 200 µl/well of primary anti-GST antibody (diluted 1∶1,000) was added. After incubation at 37°C for 1 hour, the wells were washed five times with wash buffer and incubated at 37°C with HRP-conjugated secondary antibody (200 µl/well; diluted 1∶20,000) for 1 hour. The wells were rinsed five times with wash buffer, 100 µl of freshly prepared tetramethylbenzidine solution was added to each well and incubated at 37°C for 1 hour. OD650nm was monitored on a plate reader (Spectramax M2). […]
Figure 3 Adhesion of Als5 to collagen type IV involves recognition of carbohydrate residues on collagen type IV but is not solely determined by it. […] Adhesion of the proteins to collagen type IV was correlated to the absorbance at 650 nm observed by the oxidation of TMB, the substrate of HRP. […] Adherence to collagen type IV was detected as already described. […]

[2] = Aggregation by transmission electron microscopy; type: physicochemical; conditions: 37 °C
Procedure: Transmission Electron Microscopy (TEM)
TEM studies were carried out on a JEOL 2100F. The proteins (0.09 mg/ml) were incubated at 37 °C for 2 weeks prior to the measurements. The proteins were spotted on a carbon-coated copper grid and positively stained with 2% uranyl acetate. The sample was then dried and examined by TEM using a 210 kV accelerating voltage.
Figure 5 Transmission electron microscope images showing aggregation by GST-Als5. […] The scale bar in each panel represents 100 nm. Left panel: 10,000X magnification. Right panel: 25,000X magnification.
(A) Prediction of β-aggregation potential for the GPI anchor attachment signal sequence (SS). The prediction of β-aggregation potential for the SS was done using TANGO (residues 1328–1347). Also shown is the propensity for α-helix, β-turn and β-sheet formation in the unfolded polypeptide chain as predicted by TANGO. […] (B). Transmission electron microscope images showing aggregation by SS and SS in the presence of GST-Als5. The samples, SS (40.0 µM), GST-Als5 (0.4 µM) and GST-Als5 (0.4 µM) + SS (40.0 µM) were incubated as 37 °C for two days before TEM images were recorded.

B1: GST-Als5: GST fusion of full length Als5 minus the GPI anchor attachment signal sequence, expressed in E. coli (protein)
chain: ITGIFNSIDSLTWSNAGNYAFKGPGYPTWNAVLGWSLDGTSANPGDTFILNMPCVFKFTASQKSVDLTADGVKYATCQFYSGEEFTTFSSLKCTVNNNLRSSIKALGTVTLPIAFNVGGTGSSVDLEDSKCFTAGTNTVTFNDGSKKLSIAVNFEKSTVDQSGYLTTSRFMPSLNKIATLYVAPQCENGYTSGTMGFSTSYGDVAIDCSNVHIGISKGVNDWNHPVTSESFSYTKSCSSFGISITYQNVPAGYRPFIDAYISPSDNNQYQLSYKNDYTCVDDYWQHAPFTLKWTGYKNSDAGSNGIVIVATTRTVTDSTTAVTTLPFNPSVDKTKTIEILQPIPTTTITTSYVGVTTSYSTKTAPIGETATVIVDVPYHTTTTVTSEWTGTITTTTTRTNPTDSIDTVVVQVPLPNPTTTTTQFWSESFTSTTTITNSLKGTDSVIVREPHNPTVTTTEFWSESYATTETITNGPEGTDSVIVREPHNPTVTTTEFWSESYATTETVTNKPEGTDSVIIKEPHNPTVTTTEFWSESYATTETITTGPLGTDSIVIHDPLEESSSTTAIESSDSNISSSAQESSSSVEQSSSIVGLSSSSDIPLSSDMPSSSSTGLTSSESSTVSSYDSDSSSSSELSTFSSSESYSSSISDTTNFWDSSSSDLESTSITWSSSIDAQSSQSVQSVSNSISTSQETTSSSGEESNTSVTDILVSSDASSILNSDISSYYPSSTISLSDDFPHTIAGEPDSRSSSSIASTVEISSDLVSLTSDPTSSFDSSSSLNSDSSSSPFSDESDISASSSFSTLVAPSFSLSSSSSLSLTYPHYVNSTTYHASESESSSVASPSMASESANDDTHTLSESTDTTSSIGTDSSTVTFCRRDNGDGCIVTGMPSSSIDSEQTSDVTTTSSFVASSTPTSAEQSITDNPNIDSSQTSASSSTKSSVSVSDTVVNSISLSETSTLSSDDSTSSDTSISSTTNSDTGNINAGSSHTSTASIKESSIQKTGVMLSSSYLSTKLSSTSDITTELITTELITTELTTIEDNEPNTFTSTPSSHSEIFSSDNSVLSKQVDRESTIKTSPTTDVTTVSSLSVHSTEASTATLGENSFSNVASTPSNIATSLRSTSSSSNHATESSGTVKSEASAEAIPSPPTSTDNRLSYSTEEAKGITYANSGSTNNLITESQVAAPTDSTSVLIENPVVTSTFDDNSSAAVDQPSKTKSIEESIMNPDSTNETNNGFIATLSQAQVPNSLIHSESISTTMAKTTDASINGDSAASNSQPTTLIQQVATSSYNQPLITTYAGSSS
modifications: left off: GST, N-terminal, kept
effect of longer deglycosylation on adhesion (in words) [1]: did not further reduce the adhesion | adhesion to collagen type IV (in words) (human collagen type IV): greater adherence to collagen type IV as compared to GST-Als5-SS | aggregation (in words) ([2]; 2 weeks, 0.4 µM / 0.09 mg/ml (method)): significantly higher amount of aggregation as compared to either GST-Als5-SS or GST alone; also recorded: showed significant amount of aggregation | aggregation (in words) ([2]; 2 days, SS 40.0 µM, GST-Als5 0.4 µM, alone or together): aggregates both in the absence as well as in the presence of SS
